Assay results as given in US20260226006A1, “INDOLE COMPOUND, PREPARATION METHOD THEREFOR AND USE THEREOF” (SUZHOU MERNA THERAPEUTICS CO. LTD, priority 2023, published 2026).

Key:
[1] = test system: KRT1, KRT10, Loricrin, and Involucrin in HaCat keratinocytes; test: Expression of keratinocyte differentiation markers in HaCat cells, RT-PCR and Western blot (Example 18); format: cell-based, human; conditions: HBEGF protein alone, 24 hours
Protocol: 1*10^8 HaCat cells were seeded in culture dishes, into which a recombinant HBEGF protein (Thermo Fisher Scientific, Cat. #100-47-1 mg) was added. The cells were placed in an incubator containing 5% carbon dioxide for culture at 37° C. for 24 hours, into which an HBEGF antibody (Invitrogen, Cat. #406316) was added, or METTL3 siRNA (sh-METTL3, GeneChem) and NAP1L2 siRNA (sh-NAP1L2, GeneChem) were transfected. The cells were placed in an incubator containing 5% carbon dioxide for culture at 37° C. for 24 hours, washed with PBS, and then collected by high-speed centrifugation. An RLT lysis buffer was added to the above collected cells, the mixture was shaken at 4° C. for half an hour and centrifuged to collect the supernatant, and the protein expression amounts of keratinocyte differentiation markers KRT1, KRT10, Loricrin, and Involucrin were measured by Western blot.
Total RNA was extracted using a Trizol reagent (Sigma Aldrich). 1 μg of RNA was reverse-transcribed into cDNA using a cDNA reverse transcription kit (Transgene Biotech, Cat. #AT311-03). 1.25 μL of a primer (with a primer sequence shown in Table 2), 10 μL of an iTag Universal SYBR Green supermix (Bio-Rad, Cat. #172-5125), and an appropriate amount of DEPC ultrapure water were added to formulate 20 μL of a reaction solution to perform an RT-PCR reaction. […]

[2] = test system: HaCaT keratinocytes; test: Inhibition of HBEGF-induced differentiation of HaCaT keratinocytes, marker mRNA by RT-PCR (Example 21); format: cell-based, human; conditions: 2.5 ng/mL human recombinant HBEGF protein alone, 24 hours
Protocol: Human HaCaT keratinocytes were cultured in a DMEM culture medium containing 10% fetal bovine serum, 100 U/mL penicillin, and 100 µg/mL streptomycin. The cells were seeded into a 96-well plate at a density of […] and placed in an incubator containing 5% carbon dioxide for culture at 37° C. for 24 hours. An equal volume of DMSO was added into control well 1, a 2.5 ng/mL human recombinant HBEGF protein (Abcam, ab205523) was added into control well 2, and a 2.5 ng/mL human recombinant HBEGF protein and corresponding concentrations of test compounds were added into sample wells. The cells were continuously cultured for 24 hours, washed with PBS, and then collected by high-speed centrifugation. Total RNA was extracted using a Trizol reagent (Sigma Aldrich). 1 μg of RNA was reverse-transcribed into cDNA using a cDNA reverse transcription kit (Transgene Biotech, AT311-03). 1.25 μL of a primer (with a primer sequence shown in Table 2), 10 μL of an iTag Universal SYBR Green supermix (Bio-Rad, 172-S125), and an appropriate amount of DEPC ultrapure water were added to formulate 20 μL of a reaction solution to perform an RT-PCR reaction. Upon completion of the reaction, the reaction solution was subjected to agarose gel electrophoresis to determine the mRNA expression amounts of keratinocyte differentiation markers KRT1, KRT10, Loricrin, and Involucrin.

B1: recombinant HBEGF protein: recombinant HBEGF protein used to induce keratinocyte differentiation (protein, UniProt Q99075 63-148, looked up)
Heparin-binding EGF-like …: DLQEADLDLLRVTLSSKPQALATPNKEEHGKRKKKGKGLGKKRDPCLRKYKDFCIHGECKYVKELRAPSCICHPGYHGERCHGLSL
[1]
  mRNA and protein expression amounts of KRT1, KRT10, Loricrin, and Involucrin: significantly increased
[2]
  mRNA expression amounts of HaCaT differentiation markers KRT1, KRT10, Loricrin, and Involucrin: significantly increased
